Experimental data reported in patent US20090131317A1, “COMPOUNDS AND PEPTIDES THAT BIND THE TRAIL RECEPTOR” (AFFYMAX, INC., priority 2007, published 2009).
Numbered stars: 1 amine (or outer) side, 2 acyl side, 3 side chain; on linkers, the order of the positions; unused ones are H or OH. Bridge positions count the residues as written; N and C are the ends. Peptide text beside a SMILES is read from it. I, II: the chains in the order shown. TSAT = Tris-succinimidyl aminotriacetate linker; Isophthaloyl = O=C(c1cccc(C(=O)[*:2])c1)[*:1]; X1 = O=C(CN(CC(=O)[*:2])CC(=O)[*:3])[*:1]; Diglycolyl = O=C(COCC(=O)[*:2])[*:1]; DIG = diglycolic acid linker

Legend:
HCT-116 cells = format: cell-based
Method: The apoptotic activity of test peptides is measured using an HCT-116 proliferation assay. The HCT-116 assay is used to measure the activity of TRAIL R2 agonist peptides using the colon carcinoma cell line HCT-116 (ATCC, Manassas, Va.).
In more detail, a peptide homotrimer based on the peptide monomer sequence of SEQ ID NO: 19 (See, FIG. 8B) is tested for functional activity using the HCT-116 proliferation assay. HCT-116 cells are incubated for one to two days in the presence of serially diluted peptide dimers or peptide trimers. […]
Cell viability is measured using an MTT colorimetric viability assay, a colorimetric assay that analyzes the number of viable cells by measuring the ability of mitochondrial dehydrogenase enzyme in the viable cells to cleave tetrazolium salts added to the culture medium [See, Mosmann (1983) J. Immunol. […] Using this assay, cell proliferation is assessed after 24-48 hours by adding 10 μL of MTT stock solution (ATCC, Manassas, Va.) to the wells. […] After incubation overnight in a 37° C., 5% CO2 incubator, the plates are quantified by reading the optical density at 595 nm (OD595) in a SpectraMax M5 microplate reader (Molecular Devices, Sunnyvale, Calif.). The data are analyzed using GraphPad® Prism software (La Jolla, Calif.) to calculate IC50 values from a 4-parameter logistic equation.

Jurkat cells = format: cell-based
Method: The apoptotic activity of test peptides is measured using a Jurkat proliferation assay.
Jurkat cells are obtained from the American Type Culture Collection (ATCC, Manassas, Va.) and are maintained in RPMI-1640 medium supplemented with 10% FBS, 100 U/mL penicillin, and 100 […] (Growth Medium). […] Cells are resuspended at a density of 1×10^6 cells/mL in Growth Medium, and 50 μl cells is added to each well of the assay plates. The plates are incubated in a 37° C., 5% CO2 incubator for 24-48 hours. Proliferation is assessed by adding 10 μL of MTT stock solution (ATCC, Manassas, Va.) to the wells. The plates are incubated in a 37° C., 5% CO2 incubator for another 2-4 hours, followed by the addition of 100 μL of 20% SDS with 0.01 N HCl. After incubation overnight in a 37° C., 5% CO2 incubator, the plates are quantified by reading the optical density at a wavelength of 595 nm (OD595) in a SpectraMax® M5 microplate reader (Molecular Devices, Sunnyvale, Calif.). The data are analyzed using GraphPad Prism® software (La Jolla, Calif.) to calculate IC50 values from a 4-parameter logistic equation.

[1] = biological target: T1, Recombinant human TRAIL R2-Fc fusion protein (R&D Systems) (human, UniProt O14763 52-182, limits assumed); experiment: AlphaQuest competition: displaces biotinylated TRAIL ligand from human TRAIL R2-Fc
T1 construct: Bought from R&D Systems; held on protein A-coated acceptor beads in the AlphaQuest/AlphaScreen assay; also called TRAIL R2 receptor; R2 receptor; not shown: Fc part of the bought fusion protein
Method: The plates are sealed with adhesive sealing film and covered with aluminum foil, centrifuged at 600 rpm for 30 seconds and incubated overnight in the dark. […] The raw data are analyzed using GraphPad Prism® software (La Jolla, Calif.) to calculate IC₅₀ values from a 4-parameter logistic equation.
The binding affinity of the antagonist peptides and peptide-based compounds of the invention are measured according to the AlphaQuest® Competitive Binding Assay, described above, in Example 1.1. The IC₅₀ values are determined for each test peptide or test compound. The compounds tested are homodimers and homotrimers of peptides comprising the amino sequence set forth in SEQ ID NOs: 33 and 34, linked by DIG or TSAT, respectively.

[2] = biological target: TRAIL R2 receptor on HCT-116 or Jurkat cells (UniProt O14763 56-440, limits assumed); experiment: cell-based or functional assay

Row | Molecule | EC50 (HCT-116 cells) [nM] | EC50 (Jurkat cells) [nM] | IC50 [1] [nM] | EC50, Jurkat antagonist assay (inhibition of TRAIL ligand-induced apoptosis) [2] [nM]
1 | I: Ac-WDCLDNRIGRRQCVKL-NH2 / II: Ac-WDCLDNRIGRRQCVKL-NH2 / III: Ac-WDCLDNRIGRRQCVKL-NH2 (disulfide I:3-I:13, II:3-II:13, III:3-III:13 (inferred); linker I:15-II:15-III:15 via X1 (inferred)) [SEQ ID NO: 19 homotrimer] | ~480 | – | – | –
2 | CC(=O)N[C@@H](Cc1c[nH]c2ccccc12)C(=O)N[C@@H](CC(=O)O)C(=O)N[C@H]1CSSC[C@@H](C(=O)N[C@H](C(=O)N[C@@H](CCCNC(=N)N)C(=O)N[C@@H](CC(C)C)C(=O)N[C@@H](CCC(=O)O)C(=O)N[C@@H](CCCNC(=N)N)C(=O)N[C@@H](CCCCNC(=O)COCC(=O)NCCCC[C@H](NC(=O)[C@H](CCCNC(=N)N)NC(=O)[C@H](CCC(=O)O)NC(=O)[C@H](CC(C)C)NC(=O)[C@H](CCCNC(=N)N)NC(=O)[C@@H](NC(=O)[C@@H]2CSSC[C@H](NC(=O)[C@H](CC(=O)O)NC(=O)[C@H](Cc3c[nH]c4ccccc34)NC(C)=O)C(=O)N[C@@H](CC(C)C)C(=O)N[C@@H](C(C)C)C(=O)N[C@@H](CC(=O)O)C(=O)N[C@@H](CCCNC(=N)N)C(=O)N3CCC[C@H]3C(=O)NCC(=O)N[C@@H](CCCNC(=N)N)C(=O)N[C@@H](CCCNC(=N)N)C(=O)N[C@@H](CCC(N)=O)C(=O)N2)C(C)C)C(N)=O)C(N)=O)C(C)C)NC(=O)[C@H](CCC(N)=O)NC(=O)[C@H](CCCNC(=N)N)NC(=O)[C@H](CCCNC(=N)N)NC(=O)CNC(=O)[C@@H]2CCCN2C(=O)[C@H](CCCNC(=N)N)NC(=O)[C@H](CC(=O)O)NC(=O)[C@H](C(C)C)NC(=O)[C@H](CC(C)C)NC1=O [SEQ ID NO: 30 homodimer] (I: Ac-WDCLVDRPGRRQCVRLERK-NH2 / II: Ac-WDCLVDRPGRRQCVRLERK-NH2; disulfide I:3-I:13, II:3-II:13 (inferred); linker I:19-II:19 via Diglycolyl (inferred)) | – | 611 to 1090 | – | –
3 | CC[C@H](C)[C@@H]1NC(=O)[C@H](CCCNC(=N)N)NC(=O)[C@H](CC(N)=O)NC(=O)[C@H](CC(=O)O)NC(=O)[C@H](CC(C)C)NC(=O)[C@@H](NC(=O)[C@H](CC(=O)O)NC(=O)[C@H](Cc2c[nH]c3ccccc23)NC(C)=O)CSSC[C@@H](C(=O)N[C@H](C(=O)N[C@@H](CCCCNC(=O)c2cccc(C(=O)NCCCC[C@H](NC(=O)[C@@H](NC(=O)[C@@H]3CSSC[C@H](NC(=O)[C@H](CC(=O)O)NC(=O)[C@H](Cc4c[nH]c5ccccc45)NC(C)=O)C(=O)N[C@@H](CC(C)C)C(=O)N[C@@H](CC(=O)O)C(=O)N[C@@H](CC(N)=O)C(=O)N[C@@H](CCCNC(=N)N)C(=O)N[C@@H]([C@@H](C)CC)C(=O)NCC(=O)N[C@@H](CCCNC(=N)N)C(=O)N[C@@H](CCCNC(=N)N)C(=O)N[C@@H](CCC(N)=O)C(=O)N3)C(C)C)C(=O)N[C@@H](CC(C)C)C(N)=O)c2)C(=O)N[C@@H](CC(C)C)C(N)=O)C(C)C)NC(=O)[C@H](CCC(N)=O)NC(=O)[C@H](CCCNC(=N)N)NC(=O)[C@H](CCCNC(=N)N)NC(=O)CNC1=O [SEQ ID NO: 19 homodimer (IPA linker)] (I: Ac-WDCLDNRIGRRQCVKL-NH2 / II: Ac-WDCLDNRIGRRQCVKL-NH2; disulfide I:3-I:13, II:3-II:13; linker I:15-II:15 via Isophthaloyl) | – | 1400 to 4020 | – | –

The remaining lines, values ahead:

Row | EC50 (HCT-116 cells) [nM] | EC50 (Jurkat cells) [nM] | IC50 [1] [nM] | EC50, Jurkat antagonist assay (inhibition of TRAIL ligand-induced apoptosis) [2] [nM] | Molecule
4 | – | > 22000 | – | – | CC(=O)N[C@@H](Cc1c[nH]c2ccccc12)C(=O)N[C@@H](CC(=O)O)C(=O)N[C@H]1CSSC[C@@H](C(=O)N[C@H](C(=O)N[C@@H](CCCCNC(=O)COCC(=O)NCCCC[C@H](NC(=O)[C@@H](NC(=O)[C@@H]2CSSC[C@H](NC(=O)[C@H](CC(=O)O)NC(=O)[C@H](Cc3c[nH]c4ccccc34)NC(C)=O)C(=O)N[C@@H](CC(C)C)C(=O)N[C@@H](C(C)C)C(=O)N[C@@H](CC(=O)O)C(=O)N[C@@H](CCCNC(=N)N)C(=O)N3CCC[C@H]3C(=O)NCC(=O)N[C@@H](CCCNC(=N)N)C(=O)N[C@@H](CCCNC(=N)N)C(=O)N[C@@H](CCC(N)=O)C(=O)N2)C(C)C)C(=O)N[C@@H](CC(C)C)C(=O)N[C@@H](CCC(=O)O)C(=O)N[C@@H](CCCNC(=N)N)C(N)=O)C(=O)N[C@@H](CC(C)C)C(=O)N[C@@H](CCC(=O)O)C(=O)N[C@@H](CCCNC(=N)N)C(N)=O)C(C)C)NC(=O)[C@H](CCC(N)=O)NC(=O)[C@H](CCCNC(=N)N)NC(=O)[C@H](CCCNC(=N)N)NC(=O)CNC(=O)[C@@H]2CCCN2C(=O)[C@H](CCCNC(=N)N)NC(=O)[C@H](CC(=O)O)NC(=O)[C@H](C(C)C)NC(=O)[C@H](CC(C)C)NC1=O [SEQ ID NO: 31 homodimer] (I: Ac-WDCLVDRPGRRQCVKLER-NH2 / II: Ac-WDCLVDRPGRRQCVKLER-NH2; disulfide I:3-I:13, II:3-II:13 (inferred); linker I:15-II:15 via Diglycolyl (inferred))
5 | – | – | 0.038 | 323 | Ac-WDCLDNRIGK(TSAT)RQCVRA-NH2 (disulfide 3-13 (inferred); also: homotrimer joined by TSAT linker at Lys10) [peptide homotrimer based on the monomer amino acid sequence of SEQ ID NO: 34, TSAT linker]
6 | – | – | 0.06 | 1580 | Ac-WDCLDNRIGK(DIG)RQCVRA-NH2 (disulfide 3-13 (inferred); also: homodimer joined by DIG linker at Lys10, also called 34 Dimer DIG) [peptide homodimer based on the monomer amino acid sequence of SEQ ID NO: 34, DIG linker]
7 | – | – | 0.111 | 5440 | Ac-WDCLDNRIGK(DIG)RQCVR-NH2 (disulfide 3-13 (inferred); also: homodimer joined by DIG linker at Lys10, also called 33 Dimer DIG) [peptide homodimer based on the monomer amino acid sequence of SEQ ID NO: 33, DIG linker]
